{
  "source": "paper PMC6902050",
  "about": "“OXA-830, a Novel Chromosomally Encoded Extended-Spectrum Class D β-Lactamase in Aeromonas simiae” (Frontiers in Microbiology, 2019)",
  "key": {"OXA-830": {"target": "T1, OXA-830 (Aeromonas simiae, UniProt A0A5K1KBV9)", "T1 construct": "gene blaOXA; predicted signal peptide cleavage 22/23", "T1 sequence (A0A5K1KBV9 entry or part of it)": "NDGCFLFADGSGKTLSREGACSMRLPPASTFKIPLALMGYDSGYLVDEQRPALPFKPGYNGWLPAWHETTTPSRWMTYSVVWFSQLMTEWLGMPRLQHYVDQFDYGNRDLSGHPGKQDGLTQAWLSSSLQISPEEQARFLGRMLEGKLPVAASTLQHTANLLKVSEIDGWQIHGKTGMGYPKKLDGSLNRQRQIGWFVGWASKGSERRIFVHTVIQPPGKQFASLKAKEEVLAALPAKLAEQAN", "experiment": "inhibition of benzylpenicillin hydrolysis, UV-VIS spectrophotometry", "format": "biochemical"}, "[1]": {"tested_on": "CCN1CCN(C(=O)N[C@@H](C(=O)N[C@@H]2C(=O)N3[C@@H]2SC(C)(C)[C@@H]3C(=O)O)c2ccccc2)C(=O)C1=O", "experiment": "initial hydrolysis rates, UV-VIS spectrophotometry, Michaelis-Menten fit", "format": "biochemical, Aeromonas simiae", "details": "10 mM phosphate buffer pH 7.0, 30°C", "excerpt": "(§1) initial hydrolysis rates, UV-VIS spectrophotometry, Michaelis-Menten fit on OXA-830"}, "[2]": {"tested_on": "CC1(C)S[C@@H]2[C@H](NC(=O)Cc3ccccc3)C(=O)N2[C@H]1C(=O)O", "experiment": "initial hydrolysis rates, UV-VIS spectrophotometry, Michaelis-Menten fit", "format": "biochemical, Aeromonas simiae", "details": "10 mM phosphate buffer pH 7.0, 30°C", "excerpt": "as §1"}, "[3]": {"tested_on": "Cc1onc(-c2ccccc2)c1C(=O)N[C@@H]1C(=O)N2[C@@H]1SC(C)(C)[C@@H]2C(=O)O", "experiment": "initial hydrolysis rates, UV-VIS spectrophotometry, Michaelis-Menten fit", "format": "biochemical, Aeromonas simiae", "details": "10 mM phosphate buffer pH 7.0, 30°C", "excerpt": "as §1"}, "[4]": {"tested_on": "CC1(C)S[C@@H]2[C@H](NC(=O)[C@H](C(=O)O)c3ccsc3)C(=O)N2[C@H]1C(=O)O", "experiment": "initial hydrolysis rates, UV-VIS spectrophotometry, Michaelis-Menten fit", "format": "biochemical, Aeromonas simiae", "details": "10 mM phosphate buffer pH 7.0, 30°C", "excerpt": "as §1"}, "[5]": {"tested_on": "CC(C)(O/N=C(\\C(=O)N[C@@H]1C(=O)N2C(C(=O)[O-])=C(C[n+]3ccccc3)CS[C@H]12)c1csc(N)n1)C(=O)O", "experiment": "initial hydrolysis rates, UV-VIS spectrophotometry, Michaelis-Menten fit", "format": "biochemical, Aeromonas simiae", "details": "10 mM phosphate buffer pH 7.0, 30°C", "excerpt": "as §1"}, "[6]": {"tested_on": "CC1(C)S[C@@H]2[C@H](NC(=O)[C@H](N)c3ccccc3)C(=O)N2[C@H]1C(=O)O", "experiment": "initial hydrolysis rates, UV-VIS spectrophotometry, Michaelis-Menten fit", "format": "biochemical, Aeromonas simiae", "details": "10 mM phosphate buffer pH 7.0, 30°C", "excerpt": "as §1"}, "[7]": {"tested_on": "CO[C@@]1(NC(=O)Cc2cccs2)C(=O)N2C(C(=O)O)=C(COC(N)=O)CS[C@@H]21", "experiment": "initial hydrolysis rates, UV-VIS spectrophotometry, Michaelis-Menten fit", "format": "biochemical, Aeromonas simiae", "details": "10 mM phosphate buffer pH 7.0, 30°C", "excerpt": "as §1"}, "[8]": {"tested_on": "Cc1nnc(SCC2=C(C(=O)O)N3C(=O)[C@@H](NC(=O)Cn4cnnn4)[C@H]3SC2)s1", "experiment": "initial hydrolysis rates, UV-VIS spectrophotometry, Michaelis-Menten fit", "format": "biochemical, Aeromonas simiae", "details": "10 mM phosphate buffer pH 7.0, 30°C", "excerpt": "as §1"}, "[9]": {"tested_on": "Cc1onc(-c2ccccc2Cl)c1C(=O)N[C@@H]1C(=O)N2[C@@H]1SC(C)(C)[C@@H]2C(=O)O", "experiment": "initial hydrolysis rates, UV-VIS spectrophotometry, Michaelis-Menten fit", "format": "biochemical, Aeromonas simiae", "details": "10 mM phosphate buffer pH 7.0, 30°C", "excerpt": "as §1"}},
  "data": [
    {"molecule": "O=C(O)[C@H]1/C(=C/CO)O[C@@H]2CC(=O)N21", "note": "[clavulanic acid]", "values": [
      {"measurement": "IC50", "setting": "OXA-830", "value": "260 ± 20", "unit": "nM"}
    ]},
    {"molecule": "OXA-830 (Aeromonas simiae)", "values": [
      {"measurement": "Km", "setting": "[1]", "value": 233, "unit": "µM"},
      {"measurement": "kcat", "setting": "[1]", "value": 413, "unit": "s⁻¹"},
      {"measurement": "kcat/Km", "setting": "[1]", "value": "1.77e+06", "unit": "M⁻¹ s⁻¹"},
      {"measurement": "Km", "setting": "[2]", "value": 540, "unit": "µM"},
      {"measurement": "kcat", "setting": "[2]", "value": 527, "unit": "s⁻¹"},
      {"measurement": "kcat/Km", "setting": "[2]", "value": 980000, "unit": "M⁻¹ s⁻¹"},
      {"measurement": "Km", "setting": "[3]", "value": 722, "unit": "µM"},
      {"measurement": "kcat", "setting": "[3]", "value": 1240, "unit": "s⁻¹"},
      {"measurement": "kcat/Km", "setting": "[3]", "value": "1.72e+06", "unit": "M⁻¹ s⁻¹"},
      {"measurement": "Km", "setting": "[4]", "value": 208, "unit": "µM"},
      {"measurement": "kcat", "setting": "[4]", "value": 227, "unit": "s⁻¹"},
      {"measurement": "kcat/Km", "setting": "[4]", "value": "1.09e+06", "unit": "M⁻¹ s⁻¹"},
      {"measurement": "Km", "setting": "[5]", "value": 61, "unit": "µM"},
      {"measurement": "kcat", "setting": "[5]", "value": 2.04, "unit": "s⁻¹"},
      {"measurement": "kcat/Km", "setting": "[5]", "value": 33000, "unit": "M⁻¹ s⁻¹"},
      {"measurement": "Km", "setting": "[6]", "value": 188, "unit": "µM"},
      {"measurement": "kcat", "setting": "[6]", "value": 444, "unit": "s⁻¹"},
      {"measurement": "kcat/Km", "setting": "[6]", "value": "2.36e+06", "unit": "M⁻¹ s⁻¹"},
      {"measurement": "Km", "setting": "[7]", "value": 76, "unit": "µM"},
      {"measurement": "kcat", "setting": "[7]", "value": 2.79, "unit": "s⁻¹"},
      {"measurement": "kcat/Km", "setting": "[7]", "value": 37000, "unit": "M⁻¹ s⁻¹"},
      {"measurement": "Km", "setting": "[8]", "value": 975, "unit": "µM"},
      {"measurement": "kcat", "setting": "[8]", "value": 715, "unit": "s⁻¹"},
      {"measurement": "kcat/Km", "setting": "[8]", "value": 730000, "unit": "M⁻¹ s⁻¹"},
      {"measurement": "Km", "setting": "[9]", "value": 737, "unit": "µM"},
      {"measurement": "kcat", "setting": "[9]", "value": 1030, "unit": "s⁻¹"},
      {"measurement": "kcat/Km", "setting": "[9]", "value": "1.4e+06", "unit": "M⁻¹ s⁻¹"}
    ]},
    {"molecule": "CC1(C)[C@H](C(=O)O)N2C(=O)C[C@H]2S1(=O)=O", "note": "[sulbactam]", "values": [
      {"measurement": "IC50", "setting": "OXA-830", "value": "50 ± 10", "unit": "nM"}
    ]},
    {"molecule": "C[C@]1(Cn2ccnn2)[C@H](C(=O)O)N2C(=O)C[C@H]2S1(=O)=O", "note": "[tazobactam]", "values": [
      {"measurement": "IC50", "setting": "OXA-830", "value": "70 ± 20", "unit": "nM"}
    ]}
  ]
}
